Experiments:
[1] = target: PR3_1_30: PR3_1_(WT) CD33SP MS CD28TM CAAR (human); assay: cell-based or functional assay
[2] = target: PR3_10_56: PR3_10 (H44A) CD33SP SS CD28TM CAAR (human); assay: cell-based or functional assay
PR3_10_56: PR3_10 (H44A) CD33SP SS CD28TM CAAR (human), sequence (chain, as listed by the source H44A H44A limits assumed): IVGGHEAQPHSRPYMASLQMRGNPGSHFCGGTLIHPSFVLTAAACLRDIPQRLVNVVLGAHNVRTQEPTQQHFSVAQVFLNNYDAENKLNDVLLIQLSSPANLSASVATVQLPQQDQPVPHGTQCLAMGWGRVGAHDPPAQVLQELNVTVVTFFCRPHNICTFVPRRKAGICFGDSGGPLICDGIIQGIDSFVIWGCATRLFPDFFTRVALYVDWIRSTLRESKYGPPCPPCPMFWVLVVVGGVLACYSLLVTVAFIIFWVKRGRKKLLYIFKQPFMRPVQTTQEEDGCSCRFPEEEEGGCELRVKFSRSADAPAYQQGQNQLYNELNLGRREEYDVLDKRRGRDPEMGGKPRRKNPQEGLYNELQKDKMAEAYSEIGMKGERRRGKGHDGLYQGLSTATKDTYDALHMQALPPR

PR3_1_30: PR3_1_(WT) CD33SP MS CD28TM CAAR (human), sequence (chain, as listed by the source limits assumed): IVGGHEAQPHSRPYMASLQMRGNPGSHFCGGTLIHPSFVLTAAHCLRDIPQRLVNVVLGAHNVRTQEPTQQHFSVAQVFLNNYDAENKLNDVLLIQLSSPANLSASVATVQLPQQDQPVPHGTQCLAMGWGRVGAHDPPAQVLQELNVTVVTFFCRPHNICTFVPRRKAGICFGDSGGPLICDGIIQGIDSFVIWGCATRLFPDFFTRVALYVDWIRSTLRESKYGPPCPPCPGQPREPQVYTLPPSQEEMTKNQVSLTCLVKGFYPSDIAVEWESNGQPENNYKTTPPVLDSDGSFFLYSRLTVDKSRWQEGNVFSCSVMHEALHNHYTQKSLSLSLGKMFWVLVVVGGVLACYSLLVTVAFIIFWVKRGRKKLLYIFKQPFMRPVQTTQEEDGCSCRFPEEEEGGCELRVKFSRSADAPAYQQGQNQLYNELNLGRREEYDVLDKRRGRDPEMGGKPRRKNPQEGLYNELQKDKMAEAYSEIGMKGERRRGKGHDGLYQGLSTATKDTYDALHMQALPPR

Substance: anti-PR3 antibody, EMD Millipore, clone MCPR3-3, catalog #MABF973
- CAAR killing efficiency against the lowest density IgG+-CHO-S target (MCPR3-3 #4 (L)) [1]: 65%
- CAAR killing efficiency against the lowest density IgG+-CHO-S target (MCPR3-3 #4 (L)) [2]: 65%

From US20250161359A1
